Six molecules from US20240279284A1 (KOREA ADVANCED INSTITUTE OF SCIENCE AND TECHNOLOGY, published 2024) can be followed below.

Assay [1] has as its target MCL-1, endogenous, in K562, HCT-116, SW620, MEWO and A375 cancer cells (Homo sapiens (Human)) (UniProt Q07820). Nature of the assay: cell-based or functional assay.
The target in assay [2] is BCL-xL, endogenous, in K562, HCT-116, SW620, MEWO and A375 cancer cells (Homo sapiens (Human)) (UniProt Q07817). Put plainly: cell-based or functional assay.
In assay [3] the target is T1, BFL-1 (1-151;C4S/C19S), biotinylated, with C-terminal biotinylation sequence (UniProt Q16548 1-151).
T1 construct: range 1-151; also called BFL-1 (A1)
T1 sequence: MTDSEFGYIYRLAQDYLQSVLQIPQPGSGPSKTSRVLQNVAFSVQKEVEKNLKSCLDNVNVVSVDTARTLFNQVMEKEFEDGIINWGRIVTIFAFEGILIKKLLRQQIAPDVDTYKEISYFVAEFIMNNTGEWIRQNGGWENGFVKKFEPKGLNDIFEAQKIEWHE
Nature of the assay: SPR, biotinylated BFL-1 on CAP chip; target BFL-1. As to the method:
(§1) SPR data were collected on an 8 K device (GE Healthcare). A Series S Biotin CAPture kit (GE Healthcare) was used to immobilize biotinylated anti-apoptotic BCL-2 proteins, and all experiments were conducted in HBS-EP+buffer solution (10 mM HEPES, 150 mM NaCl, 3 mM EDTA, 0.005% Surfactant P20; GE Healthcare). Biotinylated anti-apoptotic BCL-2 proteins were immobilized on the CAP chip until the response units reached 100. Serially diluted analytes were injected at a flow rate of 30 μl/min. Analytes were used at 20 nM for single concentration experiments. Dissociation constants (KD) and kinetic parameters (Kₐ and Kd) were estimated using Biacore 8 K evaluation software (GE Healthcare).
A general note: Surface plasmon resonance follows binding to a sensor surface in real time, without labels.

The target in assay [4] is T2, MCL-1 (172-321), biotinylated, with C-terminal biotinylation sequence (Homo sapiens (Human), UniProt Q07820 172-321). Put plainly: SPR, MCL-1 immobilized, analyte series from 5 to 320 nM. As for the experimental part: as §1
The target in assay [5] is T2, MCL-1 (172-321), biotinylated, with …. Put plainly: SPR, biotinylated MCL-1 on CAP chip. As to the method: as §1
Assay [6] shares this target. Put plainly: SPR, ratio of KD values. As for the experimental part:
as §1

Assay [7] deals with BCL-2 (1-34:chimeric loop:92-203), biotinylated, with C-terminal biotinylation sequence (UniProt P10415 1-34; P10415 92-203). Nature of the assay: SPR, biotinylated BCL-2 on CAP chip. As to the method: as §1
The target in assay [8] is T3, BCL-xL (1-44:85-209), biotinylated, with C-terminal biotinylation sequence (Homo sapiens (Human), UniProt Q07817 1-209, biotin on the C-terminal biotinylation sequence … (co-expressed BirA)).
T3 construct: Form immobilised on the CAP chip for SPR; Any purification tag from pJK hTx is not described
Nature of the assay: SPR, BCL-xL immobilized, analyte series from 1.25 to 80 nM. As to the method: as §1

The target in assay [9] is T4, BCL-B (1-177;C30S/C138S), biotinylated, with C-terminal biotinylation sequence (UniProt Q9HD36 1-177).
T4 construct: range 1-177
T4 sequence: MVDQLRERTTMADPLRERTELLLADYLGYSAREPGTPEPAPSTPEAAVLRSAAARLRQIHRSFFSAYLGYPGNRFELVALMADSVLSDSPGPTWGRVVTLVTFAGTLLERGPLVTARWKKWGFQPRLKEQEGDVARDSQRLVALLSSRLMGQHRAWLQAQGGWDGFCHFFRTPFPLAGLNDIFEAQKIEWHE
Nature of the assay: SPR, biotinylated BCL-B on CAP chip; target BCL-B. As for the experimental part: as §1

Assay [10] has as its target T5, BCL-W (1-164), biotinylated, with C-terminal biotinylation sequence (UniProt Q92843 1-164).
T5 sequence: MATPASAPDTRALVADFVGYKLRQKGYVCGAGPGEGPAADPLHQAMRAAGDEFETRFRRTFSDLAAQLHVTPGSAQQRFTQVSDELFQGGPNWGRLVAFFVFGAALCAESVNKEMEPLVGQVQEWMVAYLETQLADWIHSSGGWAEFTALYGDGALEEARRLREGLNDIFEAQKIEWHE
Put plainly: SPR, biotinylated BCL-W on CAP chip; target BCL-W. As to the method: as §1

For assay [11], the target named is T3, BCL-xL (1-44:85-209), biotinylated, …. Put plainly: SPR, different analyte concentrations, biotinylated BCL-xL on CAP chip. As for the experimental part:
as §1

Assay [12] concerns the target T6, MCL-1 (172-321) (Homo sapiens (Human), UniProt Q07820 172-321). Nature of the assay: size-exclusion chromatography (Superdex 75 Increase 10/300 GL), qualitative binding assay. For orientation: In gel filtration, larger molecules generally elute earlier.
The target of assay [13] is T3, BCL-xL (1-44:85-209), biotinylated, …. Nature of the assay: SPR, ratio of KD values. As for the experimental part:
as §1

Assay [14] has the same target. Put plainly: SPR, biotinylated BCL-xL on CAP chip. As to the method:
as §1

Assay [15] addresses T6, MCL-1 (172-321). Nature of the assay: crystal structure. As to the method:
Crystals were obtained by the hanging-drop vapor diffusion method at 20° C. […] The crystals were immersed briefly in a cryoprotectant solution. […] X-ray diffraction datasets were collected on beamline 5C at Pohang Accelerator Laboratory, South Korea. […] Then, automatic model building into the electron densities and structure refinement were performed using the PHENIX software suit. […] Iterative rounds of manual model building and refinement were carried out using the programs COOT and PHENIX. All structures were illustrated using the PYMOL software.

In assay [16] the target is T3, BCL-xL (1-44:85-209), biotinylated, …. Put plainly: comparison of KD values (SPR).
For assay [17], the target named is T2, MCL-1 (172-321), biotinylated, with …. Put plainly: comparison of KD values (SPR).

T3 sequence (Q07817 other isoform, or with tags, fused parts or gaps): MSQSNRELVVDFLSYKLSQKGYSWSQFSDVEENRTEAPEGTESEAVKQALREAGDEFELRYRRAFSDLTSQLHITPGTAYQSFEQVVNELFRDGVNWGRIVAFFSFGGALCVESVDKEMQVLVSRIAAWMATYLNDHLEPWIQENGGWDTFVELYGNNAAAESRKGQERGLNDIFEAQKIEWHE
Sequence of BCL-xL, endogenous, in K562, HCT-116, SW620, MEWO and A375 cancer cells (Homo sapiens (Human)) (Q07817 whole entry): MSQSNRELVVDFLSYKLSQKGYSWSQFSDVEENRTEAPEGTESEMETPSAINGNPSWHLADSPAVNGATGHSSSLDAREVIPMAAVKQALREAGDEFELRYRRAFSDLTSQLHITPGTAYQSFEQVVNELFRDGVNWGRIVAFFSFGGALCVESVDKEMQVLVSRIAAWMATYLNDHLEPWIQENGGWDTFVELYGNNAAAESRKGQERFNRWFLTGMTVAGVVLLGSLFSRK
T2 sequence (Q07820 other isoform, or with tags, fused parts or gaps): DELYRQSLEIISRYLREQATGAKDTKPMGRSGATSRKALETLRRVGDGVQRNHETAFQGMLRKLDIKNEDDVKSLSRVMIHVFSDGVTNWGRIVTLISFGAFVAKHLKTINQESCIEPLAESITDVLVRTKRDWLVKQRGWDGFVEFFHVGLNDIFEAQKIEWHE
T6 sequence (Q07820 172-321): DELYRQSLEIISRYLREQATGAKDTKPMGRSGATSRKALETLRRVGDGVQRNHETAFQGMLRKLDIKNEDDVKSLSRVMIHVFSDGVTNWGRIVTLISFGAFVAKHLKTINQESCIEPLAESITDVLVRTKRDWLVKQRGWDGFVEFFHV
Sequence of BCL-2 (1-34:chimeric loop:92-203), biotinylated, with C-terminal biotinylation sequence (P10415 other isoform, or with tags, fused parts or gaps mutant): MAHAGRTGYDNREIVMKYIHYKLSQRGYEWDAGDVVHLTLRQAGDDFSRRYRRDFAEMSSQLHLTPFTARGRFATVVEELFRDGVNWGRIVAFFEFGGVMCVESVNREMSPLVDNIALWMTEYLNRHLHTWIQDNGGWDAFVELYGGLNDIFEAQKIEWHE

B1: 4H_αBM_3_CTS, 3×FLAG-tagged, expressed in cancer cell lines by lentivirus (designed binder, not shown: small tags and cut ends)
chain: MDAKKVAKKAAIQAARRITELAQVLVELLKEALKLDLTQEMRKKLIERYAAAIIRAIGDINNAIYQAKQEAEKLKKAGLVDSDQLDALLRALDELQKVASKAANQLGRLFEEALKRLDKDNGGEEEKDRTAKWFEFEARAIELALRLAAIGDVFDLEKEWRKLKPRMVILRLLRYIVRLVWRMH
As for B1, in assay [1], the cell viability (WST-1), A375 cells is 11%; the cell viability (WST-1), HCT-116 cells came to 50%; the cell viability (WST-1), K562 cells was determined as 33%; the cell viability (WST-1), MEWO cells came out at 33%. This molecule also had a cell viability (WST-1), SW620 cells in assay [1] of 27%. In addition, in assay [2], the cell viability (WST-1), A375 cells stood at 11%; the cell viability (WST-1), HCT-116 cells was found to be 50%; the cell viability (WST-1), K562 cells was determined as 33%; the cell viability (WST-1), MEWO cells was 33%. This molecule came in with a cell viability (WST-1), SW620 cells in [2] of 27%.

B2: 4H_αBM_2 (I143L/I54E/G58E) (designed binder)
chain: MDAKKVAKKAAIQAARRITELAQVLVELLKEALKLDLTQEMRKKLIERYAAAIERAIEDINNAIYQAKQEAEKLKKAGLVDSDQLDALLRALDELQKVASKAANQLGRLFEEALKRLDKDNGGEEEKDRTAKWFEFEARAIELALRLAAIGDVFDLEKEWRKLK
notes: also called 4H_αBM_3 (I54E/G58E)
B2: the Kd (usually the equilibrium constant for the complex coming apart) is 16.4 nM in assay [3]; 113 nM in assay [4]; 133 nM in [5]; 2.04 nM in assay [7]; 0.82 nM in assay [8]; 146 nM in [9]. For the same molecule, in [10], binding was characterised by a dissociation constant (Kd) of 1.59 nM. Moreover, the “fold reduced affinity (against 4H_αBM_2 (I54E/G58E))” value in assay [6] is approximately 7 fold.

B3: 4H_αBM_1 (designed binder)
chain: MDAKKVAKKAADQAANRIRELAQVLVELLKEALKLDLTQEMRKKLIERYAAAIIRAIGDINNAIYQAKQEAEKLKKAGLVDSDQLDALLRALDELQKVASKAANQLGRLFEEALKRLDKDNGGEEEKDRTAKWFEFEARAIAIALTLAAIGDVFDLEKEWRKLK
notes: also called D81
Turning to B3, the Kd in assay [11] is 8.57 nM. Besides, the binding result with MCL-1 (172-321) [12] is “binds”.

B4: 4H_αBM_2 (designed binder)
chain: MDAKKVAKKAAIQAARRITELAQVLVELLKEALKLDLTQEMRKKLIERYAAAIIRAIGDINNAIYQAKQEAEKLKKAGLVDSDQLDALLRALDELQKVASKAANQLGRLFEEALKRLDKDNGGEEEKDRTAKWFEFEARAIEIALRLAAIGDVFDLEKEWRKLK
Regarding B4, in [13], the “fold stronger binding than 4H_αBM_1” value was found to be 40 fold. The same molecule had a Kd in assay [14] of 0.21 nM. Further, in the assay with MCL-1 (172-321) [15], the binding result is on record as “binds”.

B5: 4H_αBM_2 (I54E/G58E) (designed binder)
chain: MDAKKVAKKAAIQAARRITELAQVLVELLKEALKLDLTQEMRKKLIERYAAAIERAIEDINNAIYQAKQEAEKLKKAGLVDSDQLDALLRALDELQKVASKAANQLGRLFEEALKRLDKDNGGEEEKDRTAKWFEFEARAIEIALRLAAIGDVFDLEKEWRKLK
notes: also called 4H_αBM_2 (154E/G58E)
In assay [5], B5 returned a Kd of 19.2 nM.

B6: 4H_αBM_3 (designed binder)
chain: MDAKKVAKKAAIQAARRITELAQVLVELLKEALKLDLTQEMRKKLIERYAAAIIRAIGDINNAIYQAKQEAEKLKKAGLVDSDQLDALLRALDELQKVASKAANQLGRLFEEALKRLDKDNGGEEEKDRTAKWFEFEARAIELALRLAAIGDVFDLEKEWRKLK
notes: also called 4H_αBM_2 (I143L)
Regarding B6, the “fold higher binding affinity than human BIM BH3” value in [16] and in assay [17] was more than 8 fold in each case.
